Data on three substances can be found in article PMC12412097, “Structure and Nitrite Reductase Activity of the Di-iron Protein ScdA in Staphylococcus aureus” (Journal of the American Chemical Society, 2025).

One series deals with O=NO. As to the kind of experiment: purified protein. Particulars: pH 7.6, methyl viologen cation radical as electron donor, 1 μM enzyme.
In series [1] the target is C-terminal domain-only (CTD, residues 64-224) variant of ScdA (S. aureus) (UniProt P72360). As to the kind of experiment: SEC; Superdex 75 Increase 10/300 GL, 20 mM Tris, 150 mM NaCl, pH 7.6; no reducing agent (WT also with MV radicals); oligomer peak at 9.2 mL, dimer peak at 10.9 mL. (In general: Size exclusion chromatography separates by hydrodynamic size, large species first.)

In the case of “ScdA (Staphylococcus aureus subsp. aureus NCTC 8325; C191A/C30A/C31A)”, in the series on O=NO (predominantly dimeric), the Michaelis-Menten constant (Km) (in general, the concentration of substrate that gives half-maximal velocity) was determined as 822 µM and the kcat is 94.3 min^–1.

“ScdA (Staphylococcus aureus subsp. aureus NCTC 8325)”: in the series with O=NO (partly oligomeric), the Km is 681 µM and the kcat was 32.3 min^–1. Take “C-terminal domain-only (CTD, residues 64-224) variant of ScdA (from UniProt P72360 64-224) (domain or fragment)”: in series [1], the stoichiometry N (usually the number of molecules, sites or subunits per partner or assembly) is 2.
